Results: patent US20240158494A1 (Biogen, published 2024)
Where a chain is given by its changes, count along the chain named. Names may count otherwise.

B1: Rabbit ANTIBODY-A chi Fab (Fab, V domains shown)
VH: QSLEESGGGLVQPGASLTLTCKASGIDFSSSGYMCWVRQAPGKGLEWIGCIYTYSSNTYYASWAKGRFTISKTSSTTVTLQMTSLTAADTATYFCARGTYGYTGYTYTMGYFSLWGPGTLVTVSS
VL: ELDMTQTPASVEAAVGGTVTIKCQASQNINSYLAWYQQKPGQPPKLLIYRASTLASGVPSRFKGSGSGTEFTLTISDLECADAATYYCQSYYYSGSSNYNAFGGGTELEIL
notes: chimeric Fab, rabbit variable regions; constant regions of the Fab not specified (chimeric antibodies were made with a human IgG1 framework); also called chimeric rabbit Fab fragment of RabANTIBODY-A
B2: TfR1 ANTIBODY-A HC-H4C hIgG1 Fab′(1C)/LC-L1 hKappa (Fab, V domains shown)
VH: QSLVESGGGLVQPGGSLRLSCKASGIDFSSSGYMCWVRQAPGKGLEWVGCIYTYSSNTYYASWAKGRFTISKTSSTTVYLQMNSLKTEDTAVYYCARGTYGYTGYTYTMGYFSLWGPGTLVTVSS
VL: DIQMTQSPSTLSASVGDRVTITCQASQNINSYLAWYQQKPGKAPKLLIYRASTLASGVPSRFSGSGSGTEFTLTISSLQPDDFATYYCQSYYYSGSSNYNAFGGGTKVEIKR
notes: also called ANTIBODY-A H4C/L1
B3: TfR1 ANTIBODY-A HC-H2C hIgG1 Fab′(1C)/LC-L1 hKappa (Fab, V domains shown)
VH: B2 VH with K22A, S62A, W63S, A64V, P117Q
VL: B2 VL
notes: also called ANTIBODY-A H2C/L1
B4: TfR1 ANTIBODY-A HC-H3C hIgG1 Fab′(1C)/LC-L0 hKappa (Fab, V domains shown)
VH: B2 VH with T73D, S75K, T76N, T77S
VL: B2 VL with T53S, A55E
notes: also called ANTIBODY-A H3C/L0; TfRANTIBODY-A HC-H3C hIgG1Fab′(1C)/LC-L0 hKappa
B5: TfR1 ANTIBODY-A HC-H4C hIgG1 Fab′(1C)/LC-L0 hKappa (Fab, V domains shown)
VH: B2 VH
VL: B2 VL with T53S, A55E
notes: also called ANTIBODY-A H4C/L0
B6: TfR1 ANTIBODY-A HC-H3C hIgG1 Fab′(1C)/LC-L1 hKappa (Fab, V domains shown)
VH: B2 VH with T73D, S75K, T76N, T77S
VL: B2 VL
notes: also called ANTIBODY-A H3C/L1
B7: Rabbit ANTIBODY-B chi Fab (Fab, V domains shown)
VH: QSLEESGGGLVQPEGSLTLTCKASGFSFSNSYWICWVRQAPGKGLEWIGCINTDADSTNYASWARGRFTISKTSSTTVTLQMTSLTAADTASYFCARQNNVFDPGYNLWGPGTLVTVSS
VL: ELVLTQTPASVSEAVGGTVTIKCQASQNIGSNLAWYQQKPGQPPKLLIYDASKLASGVPSRFSGSGSGTEFTLTISDLECADAATYYCQCTVRGGAYGNAFGGGTEVVVK
notes: chimeric Fab, rabbit variable regions; constant regions of the Fab not specified (chimeric antibodies were made with a human IgG1 framework); also called chimeric rabbit Fab fragment of RabANTIBODY-B
B8: TfR1 ANTIBODY-B HC-H4C hIgG1 Fab′(1C)/LC-L2 hKappa (Fab, V domains shown)
VH: QSLVESGGGVVQPGRSLRLSCKASGFSFSNSYWICWVRQAPGKGLEWVGCINTDADSTNYASWARGRFTISKTSSTTVYLQMNSLRAEDTAVYYCARQNNVFDPGYNLWGPGTLVTVSS
VL: ELVLTQSPSTLSASVGDRVTITCRASQNIGSNLAWYQQKPGKAPKLLIYDASKLESGVPSRFSGSGSGTEFTLTISSLQPDDFATYYCQCTVRGGAYGNAFGGGTKVEIKR
notes: also called ANTIBODY-B H4C/L2; exemplary construct (v)
B9: TfR1 ANTIBODY-B HC-H1C hIgG1 Fab′(1C)/LC-L2 hKappa (Fab, V domains shown)
VH: QSLVESGGGVVQPGRSLRLSCAASGFSFSNSYWICWVRQAPGKGLEWVGCINTDADSTNYADSVKGRFTISKDNSKNTVYLQMNSLRAEDTAVYYCARQNNVFDPGYNLWGQGTLVTVSS
VL: B8 VL
notes: also called ANTIBODY-B H1C/L2; TfRANTIBODY-B HC-H1C/LC-L2 hIgG1Fab′(1C)
B10: TfR1 ANTIBODY-B HC-H4 hIgG1 Fab′(1C)/LC-L2 hKappa (Fab, V domains shown)
VH: B8 VH with C35A, G49A, C50A
VL: B8 VL
notes: also called ANTIBODY-B H4/L2
B11: TfR1 ANTIBODY-B HC-H3C hIgG1 Fab′(1C)/LC-L2 hKappa (Fab, V domains shown)
VH: B9 VH with D62S, S63W, V64A, K65R, V79L
VL: B8 VL
notes: also called ANTIBODY-B H3C/L2; TfRANTIBODY-B HC-H3C/LC-L2 hIgG1Fab′(1C)
B12: TfR1 ANTIBODY-B HC-H2C hIgG1 Fab′(1C)/LC-L2 hKappa (Fab, V domains shown)
VH: B8 VH with S62D, W63S, A64V, R65K, T73D, P111Q
VL: B8 VL
notes: also called ANTIBODY-B H2C/L2

Experiments:
[1] = molecular target: T1, recombinant human TfR1 extracellular domain, His-tagged (human, UniProt P02786 89-760); assay: SPR, TfR1 ECD-His captured, Fab injected, 1:1 fit
T1 construct: also called Human TfR1 ECD; human TfR1 ECD-His

[2] = molecular target: T2, recombinant cynomolgus monkey TfR1 extracellular domain, His-tagged (cynomolgus monkey, UniProt Q5RDH6 87-760 (Pongo abelii entry)); assay: SPR, TfR1 ECD-His captured, Fab injected, 1:1 fit
T2 construct: also called Cyno TfR1 ECD; cyno TfR1 ECD-His

[3] = molecular target: T1, recombinant human TfR1 extracellular …; assay: SPR, TfR1 ECD-His captured, Fab 50 and 500 nM, no transferrin
[4] = molecular target: T2, recombinant cynomolgus monkey TfR1 …; assay: as above
[5] = molecular target: T1, recombinant human TfR1 extracellular …; assay: SPR, TfR1 ECD-His captured, in the presence of 1 mM holo human transferrin
[6] = molecular target: T2, recombinant cynomolgus monkey TfR1 …; assay: as above
[7] = molecular target: T3, human transferrin receptor 1 (TfR1), full length, expressed on cells (human, UniProt P02786 1-760); assay: FACS on Ba/F3 cells, purified Fab
T3 construct: also called human TfR1; huTfR

[8] = molecular target: T4, cynomolgus monkey transferrin receptor 1 (TfR1), full length, expressed on cells (cynomolgus monkey, UniProt Q5RDH6 1-760 (Pongo abelii entry)); assay: FACS on Ba/F3 cells, purified Fab
T4 construct: also called cyno TfR1; cyTfR

[9] = molecular target: T3, human transferrin receptor 1 (TfR1), …; assay: FACS on Ba/F3 cells, Fab supernatant
[10] = molecular target: T4, cynomolgus monkey transferrin receptor …; assay: FACS on Ba/F3 cells, Fab supernatant
[11] = molecular target: T3, human transferrin receptor 1 (TfR1), …; assay: FACS on Ba/F3 cells, Fab supernatant; remark: listed apart in the source
[12] = molecular target: T4, cynomolgus monkey transferrin receptor …; assay: FACS on Ba/F3 cells, Fab supernatant; remark: listed apart in the source
[13] = molecular target: T3, human transferrin receptor 1 (TfR1), …; assay: FACS on Ba/F3 cells, purified Fab; remark: listed apart in the source
[14] = molecular target: T4, cynomolgus monkey transferrin receptor …; assay: FACS on Ba/F3 cells, purified Fab; remark: listed apart in the source
[15] = molecular target: T3, human transferrin receptor 1 (TfR1), …; assay: FACS on Ba/F3 cells, Fab supernatant; remark: listed apart in the source
[16] = molecular target: T4, cynomolgus monkey transferrin receptor …; assay: FACS on Ba/F3 cells, Fab supernatant; remark: listed apart in the source
[17] = molecular target: T3, human transferrin receptor 1 (TfR1), …; assay: FACS on Ba/F3 cells, Fab supernatant; remark: listed apart in the source
[18] = molecular target: T4, cynomolgus monkey transferrin receptor …; assay: FACS on Ba/F3 cells, Fab supernatant; remark: listed apart in the source

| Binder | Kd [1] [nM] | koff [1] [s⁻¹] | kon [1] [M⁻¹ s⁻¹] | Kd [2] [nM] | koff [2] [s⁻¹] | kon [2] [M⁻¹ s⁻¹] | EC50 [7] [nM] | EC50 [8] [nM] | EC50 [9] [nM] | EC50 [10] [nM] | EC50 [13] [nM] | EC50 [14] [nM] | EC50 [15] [nM] | EC50 [16] [nM] | also measured |
| --- | --- | --- | --- | --- | --- | --- | --- | --- | --- | --- | --- | --- | --- | --- | --- |
| B1 | 5.2 | 0.00101 | 192000 | 29 | 0.00925 | 317000 |  |  |  |  |  |  |  |  | Kd [3]: 7 nM; koff [3]: 0.0012 s⁻¹; kon [3]: 170000 M⁻¹ s⁻¹; Kd [4]: 43 nM; koff [4]: 0.01 s⁻¹; kon [4]: 230000 M⁻¹ s⁻¹; Kd [5]: 6.8 nM; koff [5]: 0.0012 s⁻¹; kon [5]: 170000 M⁻¹ s⁻¹; Kd [6]: 43 nM; koff [6]: 0.01 s⁻¹; kon [6]: 230000 M⁻¹ s⁻¹ |
| B2 | 0.91 | 0.000894 | 983000 | 2.6 | 0.0114 | 4.4e+06 | 1.8 | 2.4 | 2.2 | 1.8 |  |  |  |  |  |
| B3 | 1.2 | 0.000947 | 773000 | 3 | 0.0195 | 6.56e+06 | 1.3 | 3.3 | 2.6 | 3.3 |  |  |  |  |  |
| B4 | 1.4 | 0.0012 | 835000 | 2.5 | 0.0103 | 4.1e+06 | 1.6 | 5 | 2.5 | 2.7 |  |  |  |  | EC50 [11]: 1.1 nM; EC50 [12]: 1.5 nM |
| B5 | 0.99 | 0.000878 | 887000 | 3.3 | 0.00583 | 1.75e+06 | 1.4 | 2 | 1.4 | 1.8 |  |  |  |  |  |
| B6 | 1.2 | 0.00126 | 1.02e+06 | 4.1 | 0.0106 | 2.58e+06 | 1.5 | 5.5 | 2.1 | 4.5 |  |  |  |  |  |
| B7 | 5.8 | 0.000573 | 99200 | 1.5 | 0.000436 | 283000 |  |  |  |  |  |  |  |  | Kd [3]: 12 nM; koff [3]: 0.0018 s⁻¹; kon [3]: 140000 M⁻¹ s⁻¹; Kd [4]: 3.8 nM; koff [4]: 0.00095 s⁻¹; kon [4]: 250000 M⁻¹ s⁻¹; Kd [5]: 8.2 nM; koff [5]: 0.0015 s⁻¹; kon [5]: 180000 M⁻¹ s⁻¹; Kd [6]: 3.5 nM; koff [6]: 0.00094 s⁻¹; kon [6]: 270000 M⁻¹ s⁻¹ |
| B8 | 3.4 | 0.000767 | 223000 | 0.7 | 0.000279 | 398000 |  |  |  |  | 4.8 | 2 | 4.7 | 2.9 | EC50 [17]: 5.4 nM; EC50 [18]: 1.9 nM |
| B9 | 6.7 | 0.00115 | 171000 | 1.3 | 0.000425 | 315000 |  |  |  |  | 8.2 | 2.3 | 3.8 | 2.8 | EC50 [11]: 10.1 nM; EC50 [12]: 2.8 nM; EC50 [17]: 5.9 nM; EC50 [18]: 2.3 nM |
| B10 | 11.6 | 0.00155 | 134000 | 2.2 | 0.000508 | 228000 |  |  |  |  | 9.8 | 3.4 | 2.3 | 4.6 |  |
| B11 | 7.4 | 0.00147 | 200000 | 1.7 | 0.000608 | 348000 |  |  |  |  | 5.5 | 1.9 | 6.8 | 2.6 | EC50 [17]: 7 nM; EC50 [18]: 4 nM |
| B12 | 5.8 | 0.000999 | 170000 | 1.1 | 0.000472 | 445000 |  |  |  |  | 6.5 | 2.6 | 3.3 | 2.2 |  |
